The target of series [1] is vascular endothelial growth factor 165 (VEGF) (human, UniProt P15692-4 27-191). As to the kind of experiment: strand-displacement release of rhodamine 6G and Apixaban from gated NMOFs (fluorescence); 1 uM protein; background release only; 10 mM HEPES pH 7.4, 20 mM NaCl, 10 mM KCl, 10 mM MgCl2; 30 min; temperature not stated. Conditions: protein: commercial; chain copies: 2; label: none on DNA; read-out is released rhodamine 6G or Apixaban fluorescence; 11 bp duplex, 5' overhang 8 nt on aptamer strand.
Sequence of vascular endothelial growth factor 165 (VEGF) (P15692 other isoform, or with tags, fused parts or gaps): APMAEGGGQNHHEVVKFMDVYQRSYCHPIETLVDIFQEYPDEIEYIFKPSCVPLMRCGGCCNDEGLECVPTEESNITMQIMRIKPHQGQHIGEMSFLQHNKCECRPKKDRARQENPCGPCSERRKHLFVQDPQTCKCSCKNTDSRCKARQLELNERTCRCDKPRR

The next series addresses thrombin (UniProt P00734;P00734 328-363;364-622). As to the kind of experiment: strand-displacement release of rhodamine 6G from gated NMOFs (fluorescence); thrombin 0.25-1 uM; 10 mM KCl, 10 mM MgCl2; competes with anchor strand (1); 10 mM HEPES pH 7.4, 20 mM NaCl, 10 mM KCl, 10 mM MgCl2; 30 min; temperature not stated.

B1: thrombin aptamer (2) hybridized to anchor (1) on UiO-68 NMOFs (mixed)
DNA: GGTTGGTGTGGTTGGTTTT
?: AAAACCAACCA
modifications: strand 2 (anchor): 5'-NH2-(CH2)6, DBCO-modified, clicked to azide-functionalized UiO-68 NMOF
Take B1: the binding result is “no binding” in series [1] and “binds” with thrombin.

The record behind these values is PMC6929137, “Thrombin Aptamer-Modified Metal–Organic Framework Nanoparticles: Functional Nanostructures for Sensing Thrombin and the Triggered Controlled Release of Anti-Blood Clotting Drugs”.
